Reference: publication PMC6391106, “Hyperfunctional complement C3 promotes C5-dependent atypical hemolytic uremic syndrome in mice” (The Journal of Clinical Investigation, 2019)

B1: full-length mouse serum-derived FH (natural protein, UniProt P06909 19-1234, looked up)
chain: EDCKGPPPRENSEILSGSWSEQLYPEGTQATYKCRPGYRTLGTIVKVCKNGKWVASNPSRICRKKPCGHPGDTPFGSFRLAVGSQFEFGAKVVYTCDDGYQLLGEIDYRECGADGWINDIPLCEVVKCLPVTELENGRIVSGAAETDQEYYFGQVVRFECNSGFKIEGHKEIHCSENGLWSNEKPRCVEILCTPPRVENGDGINVKPVYKENERYHYKCKHGYVPKERGDAVCTGSGWSSQPFCEEKRCSPPYILNGIYTPHRIIHRSDDEIRYECNYGFYPVTGSTVSKCTPTGWIPVPRCTLKPCEFPQFKYGRLYYEESLRPNFPVSIGNKYSYKCDNGFSPPSGYSWDYLRCTAQGWEPEVPCVRKCVFHYVENGDSAYWEKVYVQGQSLKVQCYNGYSLQNGQDTMTCTENGWSPPPKCIRIKTCSASDIHIDNGFLSESSSIYALNRETSYRCKQGYVTNTGEISGSITCLQNGWSPQPSCIKSCDMPVFENSITKNTRTWFKLNDKLDYECLVGFENEYKHTKGSITCTYYGWSDTPSCYERECSVPTLDRKLVVSPRKEKYRVGDLLEFSCHSGHRVGPDSVQCYHFGWSPGFPTCKGQVASCAPPLEILNGEINGAKKVEYSHGEVVKYDCKPRFLLKGPNKIQCVDGNWTTLPVCIEEERTCGDIPELEHGSAKCSVPPYHHGDSVEFICEENFTMIGHGSVSCISGKWTQLPKCVATDQLEKCRVLKSTGIEAIKPKLTEFTHNSTMDYKCRDKQEYERSICINGKWDPEPNCTSKTSCPPPPQIPNTQVIETTVKYLDGEKLSVLCQDNYLTQDSEEMVCKDGRWQSLPRCIEKIPCSQPPTIEHGSINLPRSSEERRDSIESSSHEHGTTFSYVCDDGFRIPEENRITCYMGKWSTPPRCVGLPCGPPPSIPLGTVSLELESYQHGEEVTYHCSTGFGIDGPAFIICEGGKWSDPPKCIKTDCDVLPTVKNAIIRGKSKKSYRTGEQVTFRCQSPYQMNGSDTVTCVNSRWIGQPVCKDNSCVDPPHVPNATIVTRTKNKYLHGDRVRYECNKPLELFGQVEVMCENGIWTEKPKCRDSTGKCGPPPPIDNGDITSLSLPVYEPLSSVEYQCQKYYLLKGKKTITCRNGKWSEPPTCLHACVIPENIMESHNIILKWRHTEKIYSHSGEDIEFGCKYGYYKARDSPPFRTKCINGTINYPTCV
notes: mouse complement factor H, full length, from serum; also called murine FH; mouse FH
B2: murine C3b Asn1115 (complex)
chain 1: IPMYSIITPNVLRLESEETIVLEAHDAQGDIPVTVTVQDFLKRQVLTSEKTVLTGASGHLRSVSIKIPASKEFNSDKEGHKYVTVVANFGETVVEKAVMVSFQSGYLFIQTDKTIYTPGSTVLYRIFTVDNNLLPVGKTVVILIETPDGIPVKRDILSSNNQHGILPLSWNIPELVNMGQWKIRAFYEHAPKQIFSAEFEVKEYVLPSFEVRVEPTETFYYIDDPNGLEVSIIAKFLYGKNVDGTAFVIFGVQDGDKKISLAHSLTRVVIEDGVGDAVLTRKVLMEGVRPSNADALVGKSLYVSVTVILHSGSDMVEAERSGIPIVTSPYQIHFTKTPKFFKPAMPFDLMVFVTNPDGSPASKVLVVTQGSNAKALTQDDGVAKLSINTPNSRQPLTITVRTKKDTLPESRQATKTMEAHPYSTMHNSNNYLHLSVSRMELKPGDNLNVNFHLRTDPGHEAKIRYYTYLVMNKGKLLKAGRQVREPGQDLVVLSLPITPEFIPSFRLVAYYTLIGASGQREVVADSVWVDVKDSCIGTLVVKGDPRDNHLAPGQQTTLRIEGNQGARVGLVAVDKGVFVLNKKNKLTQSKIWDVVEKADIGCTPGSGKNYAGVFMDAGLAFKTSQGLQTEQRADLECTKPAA
chain 2: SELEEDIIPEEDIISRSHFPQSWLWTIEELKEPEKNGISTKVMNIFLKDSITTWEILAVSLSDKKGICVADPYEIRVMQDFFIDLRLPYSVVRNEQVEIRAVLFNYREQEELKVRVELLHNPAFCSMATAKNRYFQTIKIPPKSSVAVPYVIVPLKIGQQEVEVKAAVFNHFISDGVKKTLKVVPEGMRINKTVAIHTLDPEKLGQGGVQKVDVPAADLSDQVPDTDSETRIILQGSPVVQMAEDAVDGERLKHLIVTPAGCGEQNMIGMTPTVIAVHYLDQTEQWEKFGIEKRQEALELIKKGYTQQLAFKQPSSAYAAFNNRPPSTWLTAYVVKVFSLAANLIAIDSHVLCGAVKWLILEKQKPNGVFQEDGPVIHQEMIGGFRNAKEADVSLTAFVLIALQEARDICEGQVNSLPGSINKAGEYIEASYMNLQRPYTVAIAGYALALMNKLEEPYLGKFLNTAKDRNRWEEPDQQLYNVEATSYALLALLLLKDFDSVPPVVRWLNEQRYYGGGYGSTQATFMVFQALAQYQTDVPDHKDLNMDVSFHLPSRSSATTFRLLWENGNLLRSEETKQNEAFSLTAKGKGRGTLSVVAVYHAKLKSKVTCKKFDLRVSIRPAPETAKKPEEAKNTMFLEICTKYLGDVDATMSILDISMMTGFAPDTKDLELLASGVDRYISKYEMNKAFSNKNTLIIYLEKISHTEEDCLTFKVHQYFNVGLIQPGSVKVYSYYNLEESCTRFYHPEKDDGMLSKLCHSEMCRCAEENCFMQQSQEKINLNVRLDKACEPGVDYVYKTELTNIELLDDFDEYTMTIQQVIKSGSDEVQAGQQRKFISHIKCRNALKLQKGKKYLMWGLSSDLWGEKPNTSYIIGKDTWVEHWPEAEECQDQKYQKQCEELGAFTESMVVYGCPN
modifications: C3b made from plasma-purified C3 by factor B/factor D cleavage (C3a released); beta and alpha' chains disulfide-linked; thioester (Cys1010-Gln1013) hydrolysed; N-glycosylated; amine-coupled to CM5 …

Columns and labels:
Assay in all cases: SPR; BIAcore S200; murine C3b (WT or Asn1115) amine coupled to a CM5 chip (930 ± 10 RU); analytes in 2-fold dilution series in HBST (10 mM HEPES, 150 mM NaCl, 0.005% Tween-20, pH 7.4), 30 μl/min for 200 s; steady-state model
Conditions in all cases: both partners purified
murine C3b Asn1115 = target: B2
[1] = target: T1, recombinant murine FH SCRs 1–5 (mouse)
T1 construct: mouse complement factor H, short consensus repeats 1–5; also called recombinant mouse FH1–5; mFH SCRs 1–5; source: recombinant

[2] = target: T2, recombinant murine Crry SCRs 1–5 (mouse)
T2 construct: mouse Crry (complement receptor 1-related protein), short consensus repeats 1–5; also called recombinant mouse Crry; mouse Crry; source: recombinant
T2 sequence (P01027 749-1663, change not shown, chain 1 of 2): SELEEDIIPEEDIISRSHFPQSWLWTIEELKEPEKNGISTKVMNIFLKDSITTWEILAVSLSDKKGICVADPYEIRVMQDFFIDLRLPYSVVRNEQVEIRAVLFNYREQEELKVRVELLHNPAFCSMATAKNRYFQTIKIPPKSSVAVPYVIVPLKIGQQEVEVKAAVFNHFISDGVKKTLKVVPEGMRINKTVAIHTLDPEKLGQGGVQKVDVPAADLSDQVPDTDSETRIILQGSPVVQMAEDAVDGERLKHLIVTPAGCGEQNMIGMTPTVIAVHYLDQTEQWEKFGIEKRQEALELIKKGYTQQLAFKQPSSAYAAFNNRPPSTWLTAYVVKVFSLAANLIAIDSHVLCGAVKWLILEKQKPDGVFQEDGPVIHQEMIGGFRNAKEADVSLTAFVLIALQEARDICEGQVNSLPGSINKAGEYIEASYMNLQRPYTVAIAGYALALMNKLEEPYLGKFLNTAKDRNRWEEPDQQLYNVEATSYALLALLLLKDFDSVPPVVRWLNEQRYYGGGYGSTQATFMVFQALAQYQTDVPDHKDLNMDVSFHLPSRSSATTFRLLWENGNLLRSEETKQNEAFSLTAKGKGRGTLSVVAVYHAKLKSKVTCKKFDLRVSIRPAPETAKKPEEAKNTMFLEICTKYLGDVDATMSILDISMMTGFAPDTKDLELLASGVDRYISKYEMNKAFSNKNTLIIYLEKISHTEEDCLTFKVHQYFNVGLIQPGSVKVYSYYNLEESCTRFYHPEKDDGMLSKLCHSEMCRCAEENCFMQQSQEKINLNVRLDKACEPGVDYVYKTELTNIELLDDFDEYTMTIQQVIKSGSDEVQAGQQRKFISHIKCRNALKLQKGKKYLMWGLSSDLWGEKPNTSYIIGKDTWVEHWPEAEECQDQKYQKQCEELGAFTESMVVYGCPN
T2 sequence (P01027 749-1663 D1115N, chain 2 of 2): as the sequence (P01027 749-1663, change not shown, chain 1 of 2) above, with D367N counted along it

Sequence of murine C3b Asn1115 (P01027 749-1663, change not shown, chain 1 of 2): as the sequence (P01027 749-1663, change not shown, chain 1 of 2) above
Sequence of murine C3b Asn1115 (P01027 749-1663 D1115N, chain 2 of 2): as the sequence (P01027 749-1663, change not shown, chain 1 of 2) above, with D367N counted along it

B1 was tested, and the Kd (murine C3b Asn1115) was 3.7 µM.

Work on B2 yielded a Kd [1] of 3.1 µM and a Kd [2] of 3.5 µM.
